# Reference: the DeepSol protein solubility set
# Assay: soluble on expression in E. coli; label from the status in PepcDB or PDB records
row,Sequence,soluble on expression in E. coli
1,MFRREIQERENWRELARQFGFGFHSMYGQPYWDESAYYQFTLEQIEHDLESPTEELHQMCLSIVDEVVRCEQLLTKCAIPELMWEQVASSWQRKEPSLYSRLDFAYNGTSPAKLLENNADTPTSLFETGFWQWVWLEDVVNKGRIHQAADQFNILQDFLIERFAEIAKYQPGQTLHFSCCKYTEEDKATVQYLEDCAREVGLATAFVYVEDIGVTEDGKFVDVDRRAIRWMFKLYPWEFMFEEEYAKYLATANVNWLEPMWKSILSNKALLPLLWERFPNHPNLLPAYFANDPNASCLNDYVIKPLFSREGANIEIVKDGKRLVKTPGPYESKFNIVQKYHPLPKFGQNHTLIGSWLVNDRAAGISIREDSSLVTQDMARYIPHVILT,not soluble
2,MAHHHHHHMMLKVRYENFNDLRNDDEMLNISFVAHPCYYSILDLEESELFNKIVYENFCKVAEKVDIYDKNEYLSVYRRHDKKCRELHMLKSWELLKNTYRYKMPVIFKNLKDFDLYNMEKIPFYSINYNKKKKGTKENGFVVRNKKKINIIDKGKCFILDNHMIYSMTPEYIANNISKNILLNTHHIMKGNNILSLKEDDKYVKHQKVNDNPYYFKLRYHYNDDDIYCKDNYSYKRKGISPIKKKRKIEPILYNNKKMDYEEKKRILIYLDPFAGAGGNCNHMNNIFTIGCDINFYRIKQCQHNCNFYNKNVDFILCDFFNLVTHFRKGTIDVIFFSIPWGGPKYKNKKNFELNTEIMDNISIYKCIEVSVELTENLVFYLPRNVCMKELYYLYGYYKELVKNKKCVNYENDDIYKYDRKGEGGKKKKKKKKKKILS,not soluble
3,MAVVFKKTEGLQDTQTHYCPGCTHGIIHRLVGEVLEELGVLGDAVGVVPVGCSVLGYKYFNCDTQEAAHGRAPAAATGIKRVHPENTVFTYQGDGDLASIGTAEIVHAAARGEKITTIFVNNTTYGMTGGQMAPTTLVGQRATTAQSGRNAETQGYPIRVSEMLATLTGAVFVERVAVDTPAHVRQAKKAIKKAFQVQQAGLGFGIVEVLSTCPTNWGLAPNDALQWLRDNMIPYYPLGNFKNVEVEEVK,not soluble
4,TVLPKDIPGDSLKVTVGTANGKPGDTVTVPVTFADVAKMKNVGTCNFYLGYDASLLEVVSVDAGPIVKNAAVNFSSSASNGTISFLFLDNTITDELITADGVFANIKFKLKSVTAKTTTPVTFKDGGAFGDGTMSKIASVTKTNGSVTIDP,soluble
5,MGSDKIHHHHHHMVAATSQNTFDSPRSPLYNFTMDIRPLSDVAGVILVGGRSRRMGRDKALIPLGGKPLVERVIDAFRPLFERILLVGDRGERFASYGLPVFPDIHPGSALGGLYTGLVRAGTPHVFVSACDVPWPDPRVIARLCSLREGFDVVVPRTVGGSEPLFAVYGTGCLPAMERMLREGNYRIYDFYPEVRTRYVEQAELADLVTPARTFVNVNTPEEFETIRNREEGMAIKAVSFVAKSGTGKTTLLEKVIAELKGRGYRIGVIKHDAHRFDIDHPGKDSHRLAAAGADTMLIASPEKLALVKKYDESPPLDELLATYFGDVDIVLTEGFKKSSLPKIEVHRMERSATLLCRGEEHDPTLVAVASDAALALDVPVFDLNNPAQVADFVERTFLAAGAA,not soluble
6,GSHMSLFDFFKNKGSAATATDRLKLILAKERTLNLPYMEEMRKEIIAVIQKYTKSSDIHFKTLDSNQSVETIEVEIILPR,soluble
7,MSLDGIIPVVEKKDFLRWFLKEFTLKKRECSWLLNYLMSDDDLMENVHFVEEAERCPKALIMSTNDVHTVPFCFHKYQQVTMDAEKAFHDIRMNPEEAIYIQLHFSGAKHNPNYIAVLEDNPYVPENEDLIAKQKKLAEAFLERSVQSFEEKELLRRIDEALDARDKETFLTLSQQLQHLRQHSDEGHHHHHH,soluble
8,MTKYALVGDVGGTNARLALCDIASGEISQAKTYSGLDYPSLEAVVRVYLDEHSVSVEDGCIAIACPITGDWVAMTNHTWAFSIAEMKKNLGFSHLEIINDFTAVSMAIPMLKKEHLIQFGGGEPVDGKPIAVYGAGTGLGVAHLVHVDKRWISLPGEGGHVDFAPNSEEEAMILEILRAEIGHVSAERVLSGPGLVNLYRAIVKSDNRLPENLRPKDITERALADSCIDCRRALSLFCVIMGRFGGDLALTMGTFGGVYIAGGIVPRFLEFFKASGFRGGFEDKGRFKDYVHGIPVYLIVHDNPGLLGSGAHLRQTLGHIL,not soluble
9,MGSDKIHHHHHHMRRDVFIETRNVMDFRQKVRALEDFSGEPGFALVFGQAGRGKTETARHYHAMNGGIFLRVMQGWSQCAFLQELCFQVCGLRPRSSATCKAKIIEALDSMPQTLFVDEADRLHVDRVEDLRDVFDLTSSTVVLIGEQELRGLLSTRRRIWSRVKQVVEFGPVAEEDVAILGDEAAGLDIAPEACSQIVRLADGDFRLVWSFIHQLELTAKTHGIQQINTELVARVSKLVASWRQQ,not soluble
10,MSLIRCTDINEITPFSSFISKIPNHCGTHMDASRHFVKDGLSINELPIGYFCHKDVVLLEVPKGEAEGITKEDLEPYAAILAQVSFAFLCTGFEKYRTENPLIYQNEGPYIATSAGKYLSDNYPNLKGVGIWFPCTWFAVFSCTEGHHHHHH,not soluble
11,MVSLEKNDHLMLARQLPLKSVALILAGGRGTRLKDLTNKRAKPAVHFGGKFRIIDFALSNCINSGIRRMGVITQYQSHTLVQHIQRGWSFFNEEMNEFVDLLPAQQRMKGENWYRGTADAVTQNLDIIRRYKAEYVVILAGDHIYKQDYSRMLIDHVEKGARCTVACMPVPIEEASAFGVMAVDENDKIIEFVEKPANPPSMPNDPSKSLASMGIYVFDADYLYELLEEDDRDENSSHDFGKDLIPKITEAGLAYAHPFPLSCVQSDPDAEPYWRDVGTLEAYWKANLDLASVVPELDMYDRNWPIRTYNESLPPAKFVQDRSGSHGMTLNSLVSGGCVISGSVVVQSVLFSRVRVNSFCNIDSAVLLPEVWVGRSCRLRRCVIDRACVIPEGMVIGENAEEDARRFYRSEEGIVLVTREMLRKLGHKQER,not soluble
12,MSEQKQDVAATEEQQPVLQIQRIYVKDVSFEAPNLPHIFQQEWKPKLGFDLSTETTQVGDDLYEVVLNISVETTLEDSGDVAFICEVKQAGVFTISGLEDVQMAHCLTSQCPNMLFPYARELVSNLVNRGTFPALNLSPVNFDALFVEYMNRQQAENAEEKSEEEQTKH,soluble
13,METFYTIGRSPRADIRIKSQFVSRIHAVLVRKSSDDVQAAYRIIDGDEDGQSSVNGLMINGKKVQEHIIQTGDEIVMGLEHHHHHH,not soluble
14,LLWPNYMRPLPAFSILQFDPLTRPGGALRVERDTPVESRPVGEVACRFRTCYATEVLPLVLEALNYSVTGEGALLGLRLAMNCDGHLGELGLSRLRLHLAGERYISQMLYLCLLRNLESIQLIPLDAHGRPLDGVAGKPMSFRLTGERVQPVGFAEDEALIPYPLNTFRGYRYLQEYFAFQDKFLFVDVDGLDLLGALPEETLKQVRGLELRFDIRKSGIQRLHPTLENVKLYCTPVANLFRHDALPIRLDGKQDEYLLMPAEYSLEDCGVFSVEGVTGWRPGGLGYQAYVPFESFEHDPSFDVPEARPHYSVRQRTSLLHDGLDTYLSFGIRHPEQIETLSVELTCTNQNLPQRLRLGDICVACEGTPEFLGFRNITPATPSYAPPLNRDFLWKLISNMSLNYLSLANVDALKVILETYDLPRYYDQHAAKVSKRLLGGLKAVRHEHVDRLHRGLPLRGLRTELTIDPEGYIGEGDLFVFASVLNEFFALYASINSYHELRVRSTQGDVYQWKPRMG,not soluble
15,MGSKKLKRVGLSQELCDRLSRHQILTCQDFLCLSPLELMKVTGLSYRGVHELLCMVSRACAPKMQTAYGIKAQRSADFSPAFLSTTLSALDEALHGGVACGSLTEITGPPGCGKTQFCIMMSILATLPTNMGGLEGAVVYIDTESAFSAERLVEIAESRFPRYFNTEEKLLLTSSKVHLYRELTCDEVLQRIESLEEEIISKGIKLVILDSVASVVRKEFDAQLQGNLKERNKFLAREASSLKYLAEEFSIPVILTNQITTHLSGALASQADLVSPADDLSLSEGTSGSSCVIAALGNTWSHSVNTRLILQYLDSERRQILIAKSPLAPFTSFVYTIKEEGLVLQAYGNS,soluble
